Data on one substance can be found in publication PMC3951439.

For this assay, the target named is EZH2 subunit of purified human PRC2 (human) (UniProt Q15910).
Chain of EZH2 subunit of purified human PRC2 (human) (Q15910 whole entry): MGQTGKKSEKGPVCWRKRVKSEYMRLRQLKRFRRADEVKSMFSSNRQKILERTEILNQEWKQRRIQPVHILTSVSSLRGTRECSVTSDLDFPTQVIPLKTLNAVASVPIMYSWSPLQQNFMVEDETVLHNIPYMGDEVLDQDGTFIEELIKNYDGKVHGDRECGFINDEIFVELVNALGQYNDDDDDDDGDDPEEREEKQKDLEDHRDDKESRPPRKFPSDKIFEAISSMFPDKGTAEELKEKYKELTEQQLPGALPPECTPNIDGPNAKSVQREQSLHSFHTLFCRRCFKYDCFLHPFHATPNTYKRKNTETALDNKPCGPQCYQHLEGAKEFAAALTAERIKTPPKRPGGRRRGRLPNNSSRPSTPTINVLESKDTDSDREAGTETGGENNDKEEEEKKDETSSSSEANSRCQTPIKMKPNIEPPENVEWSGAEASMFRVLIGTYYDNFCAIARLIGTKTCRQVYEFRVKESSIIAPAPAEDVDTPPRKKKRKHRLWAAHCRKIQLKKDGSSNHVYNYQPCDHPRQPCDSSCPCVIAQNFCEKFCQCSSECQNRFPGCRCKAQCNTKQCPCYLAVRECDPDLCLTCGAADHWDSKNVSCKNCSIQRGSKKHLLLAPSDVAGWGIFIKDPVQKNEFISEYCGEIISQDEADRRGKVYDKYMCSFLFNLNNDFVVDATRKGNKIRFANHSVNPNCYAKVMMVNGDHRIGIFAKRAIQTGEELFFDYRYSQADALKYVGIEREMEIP

“H3 peptide (18 to 37) containing K27Ile (from UniProt P84243 19-38)”: the IC50 of inhibition of PRC2 methyltransferase activity in vitro, peptide titrated is 8.9 µM.
